Experimental data as given in patent US12685772B2, “Methods for treating CAPRIN-1 expressing cancers” (TORAY INDUSTRIES, INC., priority 2020, dated 2026).

Target: T1, CAPRIN-1 protein (Homo sapiens, UniProt Q14444)
T1 construct: made in house
T1 sequence (Q14444 1-709): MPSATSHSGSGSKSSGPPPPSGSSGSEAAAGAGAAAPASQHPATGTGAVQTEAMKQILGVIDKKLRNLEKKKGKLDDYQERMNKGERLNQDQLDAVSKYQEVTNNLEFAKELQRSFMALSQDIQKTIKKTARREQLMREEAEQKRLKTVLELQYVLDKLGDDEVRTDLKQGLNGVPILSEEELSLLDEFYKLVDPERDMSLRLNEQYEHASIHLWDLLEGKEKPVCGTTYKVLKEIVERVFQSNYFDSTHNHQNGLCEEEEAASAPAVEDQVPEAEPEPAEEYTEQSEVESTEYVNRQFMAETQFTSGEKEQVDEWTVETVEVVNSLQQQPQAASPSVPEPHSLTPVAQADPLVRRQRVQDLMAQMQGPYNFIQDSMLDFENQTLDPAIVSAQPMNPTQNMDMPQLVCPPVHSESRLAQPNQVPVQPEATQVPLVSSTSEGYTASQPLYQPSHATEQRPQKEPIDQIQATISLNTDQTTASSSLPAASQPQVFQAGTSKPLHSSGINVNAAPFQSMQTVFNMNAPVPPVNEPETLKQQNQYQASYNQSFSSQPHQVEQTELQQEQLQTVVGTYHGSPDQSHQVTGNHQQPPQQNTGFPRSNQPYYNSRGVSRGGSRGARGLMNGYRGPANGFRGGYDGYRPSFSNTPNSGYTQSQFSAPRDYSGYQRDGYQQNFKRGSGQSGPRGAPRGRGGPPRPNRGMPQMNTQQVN
Test: ELISA using CAPRIN-1 protein immobilized on a plate
Format: binding
Protocol: One hundred (100) μg of a human CAPRIN-1 recombinant protein produced according to Example 3 of WO2010/016526 was mixed with a MPL+TDM adjuvant (Sigma) in an amount equivalent to that of the recombinant protein. The mixture was used as an antigen solution per mouse. The antigen solution was administered intraperitoneally to 6-week-old Balb/c mice (Japan SLC Inc.) and then further administered 3 times […] every week for completion of immunization. A spleen was removed on day 3 after the final immunization and then ground between two sterilized glass slides. Spleen cells were obtained by washing with PBS (−) (Nissui Pharmatheutical), centrifuging at 1500 rpm for 10 minutes, and removing supernatant, therein these were repeated 3 times. The obtained spleen cells were mixed with mouse myeloma cell SP2/0 (purchased from ATCC) at a ratio of 10:1. The PEG solution prepared by mixing 200 μl of RPMI1640 medium containing 10% FBS heated at 37° C. and 800 μl of PEG1500 (Boehringer) was added to the cells. The solution was incubated for 5 minutes for cell fusion. Centrifugation was performed at 1700 rpm for 5 minutes to remove supernatants. […] Absorbance at 450 nm and absorbance at 595 nm were measured using an absorption spectrometer. As a result, a plurality of hybridomas producing antibodies with high absorbances were selected. […]

B1: monoclonal antibody against CAPRIN-1 described in WO2013/125630: mouse monoclonal antibody with heavy-chain variable region SEQ ID NO: 114 and light-chain variable region SEQ ID NO: 115 (antibody, listed as Mus musculus, V domains shown)
VH: GPELVKPGASVKMSCKASGYTFTSYVMHWVKQKPGQGLEWIGYINPYNDGTKYNEKFKGKATLTSDKSSSTAYMELSSLTSEDSAVYYCARRYYYGSSGGYFDVWAQDHVRT
VL: DVQITQSPSYLAASPGETITINCRASKSISKYLAWYQEKPGKTNKLLIYSGSTLQSGIPSRFSGSGSGTDFTLTISSLEPEDFAMYYCQQHNEYPYTFGGGTKLEIKR
specific reactivity to CAPRIN-1 protein: exhibiting reactivity
